Where a chain is given by its changes, count along the chain named. Numbers in names are those of the source.
How the values were obtained:
[1] = molecular target: His6-tagged integrin α2A domain, wild type (human) (UniProt P17301); assay: ELISA; α2A wt or mutants (10 μg/ml) captured on immobilised mAb JA218 (2.5 μg/ml), TBS/Mg; titrated with RC; bound RC fixed and detected with rabbit RC antiserum; Kd by nonlinear regression
[2] = molecular target: α2A domain D219A mutant (human) (UniProt P17301); assay: as above
[3] = molecular target: α2A domain S214G mutant (human) (UniProt P17301); assay: as above
[4] = molecular target: α2A domain Y216G mutant (human) (UniProt P17301); assay: as above
[5] = molecular target: α2A-L2^α1 mutant (loop 2 of α2A replaced by the loop 2 sequence of the integrin α1 A-domain) (human) (UniProt P17301); assay: as above
[6] = molecular target: His6-tagged integrin α2A domain, wild type (human) (UniProt P17301); assay: ELISA; His-tagged α2A domain (wt or mutant) coated on microtiter wells at 10 μg/ml in TBS/Mg pH 7.4; titrated with RCαβγδ or RCγδ without and with NPS-modified tryptophans in 1% BSA/TBS, 2 mM MgCl2, 1.5 h; bound RC fixed with glutaraldehyde and detected with rabbit RC antiserum, OD 405 nm; Kd by nonlinear regression
[7] = molecular target: disulfide-locked α2A domain, “closed” conformation (C150A, C270A, K168C, A325C) (human) (UniProt P17301); assay: as above
[8] = molecular target: T1, rhodocetin heterotetramer (RCαβγδ); assay: ELISA; details: chain shown with the change; for percent of parent (% of wild type α2A): read at the highest rhodocetin concentration (about 70 nM), α2A captured by immobilized antibody JA218
T1 chain 1: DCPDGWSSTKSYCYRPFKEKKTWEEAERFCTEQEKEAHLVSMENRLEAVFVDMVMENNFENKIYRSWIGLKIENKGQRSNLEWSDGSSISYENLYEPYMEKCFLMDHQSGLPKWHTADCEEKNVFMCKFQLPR
T1 chain 2: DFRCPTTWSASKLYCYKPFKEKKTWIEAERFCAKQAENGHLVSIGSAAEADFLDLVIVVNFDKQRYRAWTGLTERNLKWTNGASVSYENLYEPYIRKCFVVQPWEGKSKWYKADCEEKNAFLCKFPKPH
T1 chain 3: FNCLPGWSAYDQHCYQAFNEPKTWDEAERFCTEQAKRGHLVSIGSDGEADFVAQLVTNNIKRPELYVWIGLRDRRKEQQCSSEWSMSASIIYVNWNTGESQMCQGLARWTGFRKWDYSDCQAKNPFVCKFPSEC
T1 chain 4: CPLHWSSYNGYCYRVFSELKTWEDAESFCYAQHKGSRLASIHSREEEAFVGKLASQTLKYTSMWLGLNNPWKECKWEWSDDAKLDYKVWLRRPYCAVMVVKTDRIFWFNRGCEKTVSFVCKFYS

UniProt P17301, sequence (P17301 142-337 Y216G): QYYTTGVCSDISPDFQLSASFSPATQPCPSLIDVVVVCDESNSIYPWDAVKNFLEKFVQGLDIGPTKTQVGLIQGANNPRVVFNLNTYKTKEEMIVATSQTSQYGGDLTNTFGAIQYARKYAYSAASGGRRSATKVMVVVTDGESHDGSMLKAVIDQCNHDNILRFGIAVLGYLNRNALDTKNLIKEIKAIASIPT

## rhodocetin heterotetramer (RCαβγδ) (complex)
[1]
  Kd: 0.76 nM
[2]
  Kd: 5.2 nM
[3]
  Kd: 0.77 nM
[4]
  Kd: 1.98 nM
[5]
  Kd: 2.7 nM
[6]
  Kd: 0.29 nM
[7]
  Kd: 0.21 nM

B1: His6-tagged integrin α2A domain, wild type, P17301 C150A; C270A; K168C; E318C (protein)
chain: SLIDVVVVADESNSIYPWDAVKNFLECFVQGLDIGPTKTQVGLIQYANNPRVVFNLNTYKTKEEMIVATSQTSQYGGDLTNTFGAIQYARKYAYSAASGGRRSATKVMVVVTDGESHDGSMLKAVIDQANHDNILRFGIAVLGYLNRNALDTKNLIKEIKAIASIPTERYFFNVSDCAALLEKAGTLGEQIFSIEG
[8]; read at the highest RCαβγδ concentration (about 23 nM), α2A immobilized at 10 μg/ml, parent: est. 2.6, read off a plot
  response: 0.38 OD405nm
[8]; α2A immobilized to microtiter plates at 10 μg/ml, titrated with RCαβγδ, OD405
  Kd: 2.64 nM

B2: His6-tagged integrin α2A domain, wild type, P17301 G217K (protein)
chain: B1 chain with A9C, C27K, G76K, A129C, C177E
[8]; read off a plot
  percent of parent (% of wild type α2A): 11

B3: His6-tagged integrin α2A domain, wild type, P17301 G218L (protein)
chain: B1 chain with A9C, C27K, G77L, A129C, C177E
[8]; read off a plot
  percent of parent (% of wild type α2A): 12

Reference: PMC5509089
